Assay results published in paper PMC7337065.
Values joined by “and” are separate entries in the source; they are usually repeats but may differ in a detail not shown here. Equal values may be shown once.

Key:
[1] = target: Recombinant human transferrin (human) (UniProt P02787); experiment: SEC-MALS; Superdex 200 Increase 10/30 GL, 4 °C, mobile phase 38 mM NaH2PO4, 12 mM Na2HPO4, 150 mM NaCl, 200 ppm NaN3, pH 7.4; samples from all tested formulation conditions
P02787 = experiment: SAXS; concentration series at pH 4.0-8.0 and with NaCl or arginine at pH 5.0/6.5; estimated MW from scattering; volume fractions from OLIGOMER with monomer crystal structures and a SASREFMX dimer model; conditions: other: SAXS

Recombinant human transferrin, sequence (P02787 20-698): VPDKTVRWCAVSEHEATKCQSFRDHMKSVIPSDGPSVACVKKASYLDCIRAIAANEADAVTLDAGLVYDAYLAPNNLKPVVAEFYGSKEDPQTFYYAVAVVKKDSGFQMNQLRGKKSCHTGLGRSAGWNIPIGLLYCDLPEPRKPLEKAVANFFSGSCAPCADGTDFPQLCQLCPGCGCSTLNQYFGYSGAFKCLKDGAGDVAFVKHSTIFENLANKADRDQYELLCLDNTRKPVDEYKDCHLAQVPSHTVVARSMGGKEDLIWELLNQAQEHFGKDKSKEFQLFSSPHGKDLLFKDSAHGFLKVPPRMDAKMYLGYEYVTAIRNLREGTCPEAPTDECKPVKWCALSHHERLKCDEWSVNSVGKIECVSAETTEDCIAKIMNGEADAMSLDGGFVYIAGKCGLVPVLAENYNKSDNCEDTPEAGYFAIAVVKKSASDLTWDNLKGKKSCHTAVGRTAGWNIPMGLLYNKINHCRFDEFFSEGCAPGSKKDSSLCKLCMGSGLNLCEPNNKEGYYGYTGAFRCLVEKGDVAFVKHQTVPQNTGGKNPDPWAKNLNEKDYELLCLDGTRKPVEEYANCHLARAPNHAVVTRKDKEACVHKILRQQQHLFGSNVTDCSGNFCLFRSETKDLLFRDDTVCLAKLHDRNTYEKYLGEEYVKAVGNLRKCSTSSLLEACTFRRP

| Substance | percent dimer [1] | percent trimer [1] | stoichiometry N [1] | volume fraction of dimer + aggregates (NaCl) (P02787) | volume fraction of dimer + aggregates (acetate) (P02787) | volume fraction of dimer + aggregates (arginine) (P02787) | volume fraction of dimer + aggregates (histidine) (P02787) |
| --- | --- | --- | --- | --- | --- | --- | --- |
| Recombinant human transferrin (from UniProt P02787 20-698) (natural protein) | 12% | 2% | 2 and 3 |  |  |  |  |
| Recombinant human transferrin |  |  |  | 0.5 | 0.2 | 0.4 | 0.2 |
